Test results reported in the supplement of paper PMC10567573.
± gives the standard deviation.

Experiment: protein stability index of a GFP-peptide fusion (GPS, HEK-293T) (PSI 1-6); higher = more stable
[1] = treatment: DMSO, c terminus: a fixed tail appended
[2] = treatment: MLN4924 1 uM, 8 h, c terminus: a fixed tail appended
[3] = treatment: DMSO, c terminus: native
[4] = treatment: MLN4924 1 uM, 8 h, c terminus: native
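Also: 24-mer peptide tiles fused after GFP, lentivirally expressed, FACS-sorted into six equal bins by GFP/DsRed ratio, decoded by Illumina sequencing, PSI is the read-weighted mean bin number.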

Row | Sequence | protein stability index [1] | protein stability index [2] | protein stability index [3] | protein stability index [4]
1 | AAARGGQCPGLGPAPTPTPPGRLG [ZBED3] | 4.36 ± 0.24 | 4.63 ± 0.34 | – | –
2 | AAKKVAPLMAKAIRDYKGRFSRR [ELOA2] | – | – | 2.79 ± 0.33 | 3.02 ± 0.62
3 | AALLGSNSESWGWDIGRGKLYHQS [SPSB2] | 2.6 ± 0.63 | 3.06 ± 0.13 | – | –
4 | AAPAVRASSSPVTLRQKTVDWRRV [SLA] | 3.2 ± 0.54 | 3.17 ± 0.72 | – | –
5 | ACIAYIRITQYLDAGGIPRTAQSE [CAMK2A] | 2.64 ± 0.42 | 2.81 ± 0.39 | – | –
6 | ADTTTGSAAGPPLSEDDKLQGAAS [EHMT1] | 5.46 ± 0.23 | 5.51 ± 0.18 | – | –
7 | AEEHREKLLKQMRILWKKIQENQR [TRIM43] | 2.46 ± 0.24 | 2.21 ± 0.18 | – | –
8 | AEETANLPPSPPPSPASEQTVTVE [MAP2] | 5.05 ± 0.18 | 5.18 ± 0.17 | – | –
9 | AELVLLTLGQAWQGYVSDIRRFLS [DFFB] | 2.12 ± 0.17 | 2.06 ± 0.21 | – | –
10 | AEVQAKLENAEVLELTVRRVQGVL [HES6] | 2.71 ± 0.38 | 2.58 ± 0.25 | – | –
11 | AFAQRPSSAPDLMCLSPDRKMEVE [CDC25B] | 4.97 ± 0.3 | 4.78 ± 0.14 | – | –
12 | AFDYNSLSPTQRQKNFELAFTMAE [SMTNL2] | 2.76 ± 0.3 | 3.09 ± 0.29 | – | –
13 | AFHVRRTNRVKECLAKGTFSDVTF [RHOBTB2] | 2.57 ± 0.24 | 2.78 ± 0.4 | – | –
14 | AFYKEQLARLEERSSEFYRVTTEQ [CHCHD3] | 3.29 ± 0.12 | 3.38 ± 0.34 | – | –
15 | AGADLEHESEGGRTPLMKAARAGH [ANKRD17] | 5.07 ± 0.29 | 4.95 ± 0.26 | – | –
16 | AGDEAVFAQYDSFHVDSAAEYYRL [TNXB] | 3.51 ± 0.38 | 3.68 ± 0.13 | – | –
17 | AGGEENMTETDAFYKREMFDPAEK [CASP6] | 5.13 ± 0.32 | 5.37 ± 0.3 | – | –
18 | AGTKVFEVPEMSPVTCCDVSSNNR [TLE6] | 4.13 ± 0.26 | 4.17 ± 0.33 | – | –
19 | AHQHRDKMQQSKNQVVSSTNGELN [CSNK1G3] | 5.02 ± 0.42 | 5.1 ± 0.25 | – | –
20 | AIGVSISLSSIATCVYIAEIAPQH [SLC2A12] | 3.17 ± 0.13 | 3.34 ± 0.38 | – | –
21 | AIKEMIENCLDAKSTSIQVIVKEG [MLH1] | 2.79 ± 0.19 | 2.74 ± 0.22 | – | –
22 | AIVGGMALGVAGLAGLIGLAVSKS [FIS1] | 3.38 ± 0.82 | 3.12 ± 0.51 | – | –
23 | AKGNTALHDCAESGSLEILQLLLG [FEM1A] | 2.41 ± 0.23 | 2.16 ± 0.26 | – | –

Row | Sequence | protein stability index [1] | protein stability index [2] | protein stability index [3] | protein stability index [4]
24 | AKQLQAVKRKIRDESLCPQHHEAL [TRIM39] | 3.99 ± 0.2 | 3.97 ± 0.19 | – | –
25 | ALAPKQELPSALESHEVPGTLSMG [ZNF24] | 4.59 ± 0.25 | 4.75 ± 0.3 | – | –
26 | ALGPLRTPAPPLWIGLFLVATGSQ | 2.64 ± 0.57 | 2.27 ± 0.14 | – | –
27 | ALLESSLRQAQQNMDPKAAEEEEE [CCND1] | 5.28 ± 0.29 | 5.42 ± 0.25 | – | –
28 | ALQEKLWNVAAPLYLKQSDLASAA [INTS4] | 2.31 ± 0.17 | 2.27 ± 0.3 | – | –
29 | ALVKEREKQLAKKEQSKELQMKLE [FAM50A] | 4.87 ± 0.076 | 4.64 ± 0.37 | – | –
30 | AMGDHSKKKPGTAMCVGCGSQIHD [ISL2] | 4.18 ± 0.32 | 4.3 ± 0.26 | – | –
31 | AMLREKFPEFCSSPSPPVEVKIEE [INTS3] | 4.51 ± 0.3 | 4.65 ± 0.12 | – | –
32 | ANAQIQILTRSWEEVSTLNAQIPE [CD207] | 3.52 ± 0.18 | 3.53 ± 0.2 | – | –
33 | APEYFEKNEPYLEAACNDVDRWPA [DENND6A] | 4.59 ± 0.29 | 4.47 ± 0.38 | – | –
34 | APPSPRDISMEIDSPENMMRHIRF [CCDC6] | 3.51 ± 0.28 | 3.65 ± 0.26 | – | –
35 | APQGGMAALNMSLGMVTPVNDLRG [ADD1] | 3.83 ± 0.23 | 3.77 ± 0.097 | – | –
36 | AQDLMDGLPPGDSNQLAWFDTDL [CTNNB1] | – | – | 5.29 ± 0.094 | 5.09 ± 0.081
37 | AQSEAEKKLKKDDKKKELQELNEL [ZC3H15] | 5.56 ± 0.23 | 5.53 ± 0.21 | – | –
38 | AQTFIALCATDFKFAMYPPSMIAT [CCND2] | 2.75 ± 0.71 | 3.04 ± 0.62 | – | –
39 | AQVPDTRWSRVGGQRFYSRVLSPL | 2.41 ± 0.69 | 2.75 ± 0.43 | – | –
40 | ARFITDFLDNGYGHCLLDKPEAPL [ADAMTS4] | 2.19 ± 0.2 | 2.01 ± 0.22 | – | –
41 | ASAETLPAGFRVSTLGTLQPPPAP [PPFIA4] | 3.94 ± 0.35 | 4.06 ± 0.23 | – | –
42 | ASDYSKKSNVLKLKTADWRVFLFQ [PSD2] | 2.12 ± 0.42 | 2.23 ± 0.19 | – | –
43 | ASHNGISYKDLDVIFGVELPGNEE [TENT5D] | 4.03 ± 0.16 | 4.01 ± 0.13 | – | –
44 | ASLKGYQWLKDKILSEEGRRQQAK [KCNAB2] | 3.69 ± 0.18 | 3.67 ± 0.21 | – | –
45 | ASVLLQAVLYPRFMGTISDVKTNV [CD207] | 2.76 ± 0.38 | 2.69 ± 0.41 | – | –
46 | ATADFADVADDFENYHKLRRSSSK [NETO1] | 4.99 ± 0.096 | 5.196 ± 0.05 | – | –

Row | Sequence | protein stability index [1] | protein stability index [2] | protein stability index [3] | protein stability index [4]
47 | ATKKLGFKHPVIGVHVRRTDKVGT [FUT8] | 3.12 ± 0.091 | 3.15 ± 0.21 | – | –
48 | ATTYKHGVLTRKTHADMDGKRTPR [PSD2] | 4.44 ± 0.16 | 4.63 ± 0.26 | – | –
49 | AVCLLGVGTMVGADILAGREDNSG [SLC35F2] | 3.17 ± 0.5 | 3.11 ± 0.2 | – | –
50 | AVLFTGIVALYIASGLTGFIGLEV [ATL3] | 3.49 ± 0.43 | 3.52 ± 0.35 | – | –
51 | AVLPTAFRVAKKRAPKVLGTTLVV [GDAP1] | 2.18 ± 0.2 | 2.15 ± 0.2 | – | –
52 | AWLNEHRKNPYPTKGEKIMLAIIT [IRX6] | 2.7 ± 0.42 | 2.51 ± 0.41 | – | –
53 | CAECSQYLDETCTCFVRDGKTYCK [ISL2] | 4.98 ± 0.29 | 4.74 ± 0.37 | – | –
54 | CCAAPGPHVALAVRYNRVGILRRI [ANKRD9] | 2.37 ± 0.26 | 2.49 ± 0.2 | – | –
55 | CCINSHCGWPRGKDAPCYESDTDI [DRICH1] | 2.94 ± 0.3 | 3.02 ± 0.29 | – | –
56 | CCSSADICPKCWTLMTMAIRIIDR [PRIM1] | 2.25 ± 0.18 | 2.44 ± 0.55 | – | –
57 | CERHEKGVLHKHQRALHKYSLMKR [SNX8] | 3.56 ± 0.29 | 3.8 ± 0.31 | – | –
58 | CEVIFCVFIFYYVVEEILELHIHR [PKD2L1] | 3 ± 0.52 | 3.07 ± 0.11 | – | –
59 | CFVLGFFYPVMLILFLVIGGMLNF [SOAT2] | 3.27 ± 0.52 | 3.53 ± 0.61 | – | –
60 | CLGALCENTCLLRGFSGGILAFLV [TSPAN10] | 2.34 ± 0.57 | 2.55 ± 0.33 | – | –
61 | CMKIPTGQEYAAKIINTKKLSARD [CAMK2D] | 3.7 ± 0.69 | 3.83 ± 0.42 | – | –
62 | CPRIAPADSGRYRASPTRTAPLPM [ELOA2] | 3.63 ± 0.17 | 3.76 ± 0.41 | – | –
63 | CPTPARLATTEKKTEQQRRREKAV [NOP53] | 5.19 ± 0.27 | 5.28 ± 0.24 | – | –
64 | CRPLLPSCTTRLCQEEQLRSHENK [PSD2] | 4 ± 0.13 | 3.88 ± 0.34 | – | –
65 | CRQRLIFEQTPALTKHEWTEALGC [ZNF8] | 2.38 ± 0.2 | 2.42 ± 0.26 | – | –
66 | CRYPYEYEGGHIKGAVNLHMEEEV [CDC25A] | 3.8 ± 0.34 | 3.7 ± 0.33 | – | –
67 | CSECGESFSRSSRLMSHQRTHTG [ZNF263] | – | – | 3.02 ± 0.6 | 3.53 ± 0.95
68 | CSSCQRSWASAQVQILCHTYWEHW [RTP4] | 2.3 ± 0.52 | 2.36 ± 0.28 | – | –
69 | CSSSTRSVLKRPERSQEESPPGST [CDC25A] | 5.17 ± 0.21 | 4.95 ± 0.34 | – | –

Row | Sequence | protein stability index [1] | protein stability index [2] | protein stability index [3] | protein stability index [4]
70 | CYMATTKSQTACLPFVLAAAVSRK [EHMT1] | 2.14 ± 0.3 | 2.15 ± 0.15 | – | –
71 | DCSEEYLERQLQAEFIESGQYRAN [TAF7L] | 4.09 ± 0.35 | 4.3 ± 0.12 | – | –
72 | DDEEFEYRHVMLPKDIAKLVPKTH [CKS1B] | 4.38 ± 0.23 | 4.39 ± 0.32 | – | –
73 | DDHECCERVVINISGLRFETQLKT [KCNA1] | 2.79 ± 0.3 | 2.61 ± 0.25 | – | –
74 | DDMLLFDEQEKGIVTKFYQLSATG [FAN1] | 3.57 ± 0.3 | 3.46 ± 0.2 | – | –
75 | DDYLHKDTGETSMLKRPVLLHLHQ [STEAP1] | 3.31 ± 0.21 | 3.17 ± 0.16 | – | –
76 | DEGGFTCFFRDHSYQEEAAMELKV [MOG] | 3.57 ± 0.26 | 3.7 ± 0.34 | – | –
77 | DERAMELLIDFAYTSQITVEEGNV [KLHL20] | 2.54 ± 0.21 | 3.04 ± 0.2 | – | –
78 | DESVVMPESQMCRKFSRECEDQKQ [NEUROD6] | 5.46 ± 0.3 | 5.43 ± 0.24 | – | –
79 | DGISIPELREACDYLCISFEYSTI [BTBD10] | 3.18 ± 0.93 | 2.87 ± 0.56 | – | –
80 | DGLPDLGHAQDLMDGLPPGDSNQL [CTNNB1] | 5.33 ± 0.26 | 5.4 ± 0.19 | – | –
81 | DGVEVDDSYCDALTRPEPVHEFCA [ADAMTSL2] | 4.57 ± 0.23 | 4.86 ± 0.24 | – | –
82 | DKFIEDYLLPDTCFRMQINHAIDI [OAS1] | 2.59 ± 0.36 | 2.17 ± 0.44 | – | –
83 | DKGGRVVIFQREQESKNQVHRRGE [PPP2R2B] | 4.59 ± 0.32 | 4.95 ± 0.29 | – | –
84 | DKNTLKDHMRKKQHRKINPKNREY [ZNF277] | 3.3 ± 0.33 | 3.28 ± 0.35 | – | –
85 | DKQKLKRTEIISRSWFPSAPGSAS [YJU2B] | 3.56 ± 0.21 | 3.71 ± 0.12 | – | –
86 | DLAWMITFYVRFFLTYVPLLGLKA [FADS1] | 3.03 ± 0.11 | 3.62 ± 0.23 | – | –
87 | DLIDVREVMERDAKDYADSIHAIF [RAB22A] | 3.16 ± 0.042 | 3.23 ± 0.38 | – | –
88 | DLPINVFKLLAGRWPFDHNDFGVF [EDNRA] | 2.19 ± 0.7 | 2.19 ± 0.45 | – | –
89 | DLRADDLPGPAFESYESMELACPA [KLHDC2] | 4.84 ± 0.11 | 4.72 ± 0.34 | – | –
